The values below come from the supplement of paper PMC5998384.

Data set [1] deals with HeLa Kyoto. Description: solubility change mitosis vs G1/S (difference of NP-40 vs SDS log2 ratios) (log2 ratio difference); higher = more soluble in mitosis.
The test system of data set [2] is HeLa Kyoto. Description: solubility in G1/S (NP-40 vs SDS abundance) (log2 ratio); higher = more soluble. Conditions: cell cycle stage: G1/S.
Data set [3] deals with HeLa Kyoto. Briefly: thermal stability score vs G1/S (z-score of summed log2 fold changes over temperatures); higher = more thermally stable than in G1/S.
For data set [4], the system named is HeLa Kyoto. Briefly: melting temperature (median over replicates), in situ; higher = more thermally stable.
Where [5] appears, read: cell cycle stage: early G1 (4.5 h after nocodazole release).
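For melting temperature (median over replicates), in situ in this document: HeLa Kyoto cells synchronized by double thymidine or nocodazole block, proteins quantified by TMT10plex mass spectrometry, three independent biological replicates.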
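For solubility change mitosis vs G1/S (difference of NP-40 vs SDS log2 ratios) in this document: synchronized HeLa Kyoto cells (double thymidine block for G1/S, nocodazole release for mitosis), protein amounts in NP-40 versus SDS lysates quantified by mass spectrometry, three biological replicates.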
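For solubility in G1/S (NP-40 vs SDS abundance) in this document: HeLa Kyoto cells arrested at G1/S by double thymidine block, proteins quantified by TMT10plex mass spectrometry in mild NP-40 versus SDS extracts, three biological replicates.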
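For thermal stability score vs G1/S (z-score of summed log2 fold changes over temperatures) in this document: synchronized HeLa Kyoto cells, proteins quantified by TMT10plex mass spectrometry, three biological replicates, mitosis taken 0.5 h after nocodazole release, G1/S directly after double thymidine block.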

Take “MSPEEWTYLVVLLISIPIGFLFKKAGPGLKRWGAAAVGLGLTLFTCGPHTLHSLVTILGTWALIQAQPCSCHALALAWTFSYLLFFRALSLLGLPTPTPFTNAVQLLLTLKLVSLASEVQDLHLAQRKEMASGFSKGPTLGLLPDVPSLMETLSYSYCYVGIMTGPFFRYRTYLDWLEQPFPGAVPSLRPLLRRAWPAPLFGLLFLLSSHLFPLEAVREDAFYARPLPARLFYMIPVFFAFRMRFYVAWIAAECGCIAAGFGAYPVAAKARAGGGPTLQCPPPSSPEKAASLEYDYETIRNIDCYSTDFCVRVRDGMRYWNMTVQWWLAQYIYKSAPARSYVLRSAWTMLLSAYWHGLHPGYYLSFLTIPLCLAAEGRLESALRGRLSPGGQKAWDWVHWFLKMRAYDYMCMGFVLLSLADTLRYWASIYFCIHFLALAALGLGLALGGGSPSRRKAASQPTSLAPEKLREE [MBOAT7]”: the “solubility change mitosis (log2)” value with HeLa Kyoto [1] was determined as 0.0131. For the same sequence, the “solubility in G1/S (log2)” value with HeLa Kyoto [2] is -0.091. Further, the results for the thermal stability score in the data set with HeLa Kyoto [3] (setting [5]) and in the data set on HeLa Kyoto [3] (cell cycle stage: mitosis) were -1.37 and -1.09, respectively. Also, the melting temperature turned out to be 56.9 °C in the data set on HeLa Kyoto [4] (cell cycle stage: G1/S) and 57 °C with HeLa Kyoto [4] (cell cycle stage: mitosis).
In the case of “MSPRRTLPRPLSLCLSLCLCLCLAAALGSAQSGSCRDKKNCKVVFSQQELRKRLTPLQYHVTQEKGTESAFEGEYTHHKDPGIYKCVVCGTPLFKSETKFDSGSGWPSFHDVINSEAITFTDDFSYGMHRVETSCSQCGAHLGHIFDDGPRPTGKRYCINSAALSFTPADSSGTAEGGSGVASPAQADKAEL [MSRB3]”, in the data set with HeLa Kyoto [1], the “solubility change mitosis (log2)” value came out at 0.0421. Besides, the “solubility in G1/S (log2)” value with HeLa Kyoto [2] is 0.116. For the same sequence, the values for the thermal stability score in the data set on HeLa Kyoto [3] (setting [5]) and in the data set with HeLa Kyoto [3] (cell cycle stage: mitosis) were -0.168 and -0.886, respectively. Also, the results for the melting temperature in the data set with HeLa Kyoto [4] (cell cycle stage: G1/S) and with HeLa Kyoto [4] (cell cycle stage: mitosis) were 55 °C and 53.6 °C, respectively.
Turning to “MSQGDSNPAAIPHAAEDIQGDDRWMSQHNRFVLDCKDKEPDVLFVGDSMVQLMQQYEIWRELFSPLHALNFGIGGDTTRHVLWRLKNGELENIKPKVIVVWVGTNNHENTAEEVAGGIEAIVQLINTRQPQAKIIVLGLLPRGEKPNPLRQKNAKVNQLLKVSLPKLANVQLLDTDGGFVHSDGAISCHDMFDFLHLTGGGYAKICKPLHELIMQLLEETPEEKQTTIA [PAFAH1B2]”, the “solubility change mitosis (log2)” value with HeLa Kyoto [1] is -0.079. Further, the “solubility in G1/S (log2)” value in the data set with HeLa Kyoto [2] was 0.628. Further, the thermal stability score with HeLa Kyoto [3] (setting [5]) was -0.13; in the data set with HeLa Kyoto [3] (cell cycle stage: mitosis) it was -0.102. Moreover, the melting temperature worked out at 49.5 °C in the data set with HeLa Kyoto [4] (cell cycle stage: G1/S) and 51 °C in the data set on HeLa Kyoto [4] (cell cycle stage: mitosis).
Regarding “MSQQGYVATPPYSQPQPGIGLSPPHYGHYGDPSHTASPTGMMKPAGPLGATATRGMLPPGPPPPGPHQFGQNGAHATGHPPQRFPGPPPVNNVASSHAPYQPSAQSSYPGPISTSSVTQLGSQLSAMQINSYGSGMAPPSQGPPGPLSATSLQTPPRPPQPSILQPGSQVLPPPPTTLNGPGASPLPLPMYRPDGLSGPPPPNAQYQPPPLPGQTLGAGYPPQQANSGPQMAGAQLSYPGGFPGGPAQMAGPPQPQKKLDPDSIPSPIQVIENDRASRGGQVYATNTRGQIPPLVTTDCMIQDQGNASPRFIRCTTYCFPCTSDMAKQAQIPLAAVIKPFATIPSNESPLYLVNHGESGPVRCNRCKAYMCPFMQFIEGGRRYQCGFCNCVNDVPPFYFQHLDHIGRRLDHYEKPELSLGSYEYVATLDYCRKSKPPNPPAFIFMIDVSYSNIKNGLVKLICEELKTMLEKIPKEEQEETSAIRVGFITYNKVLHFFNVKSNLAQPQMMVVTDVGEVFVPLLDGFLVNYQESQSVIHNLLDQIPDMFADSNENETVFAPVIQAGMEALKAADCPGKLFIFHSSLPTAEAPGKLKNRDDKKLVNTDKEKILFQPQTNVYDSLAKDCVAHGCSVTLFLFPSQYVDVASLGLVPQLTGGTLYKYNNFQMHLDRQQFLNDLRNDIEKKIGFDAIMRVRTSTGFRATDFFGGILMNNTTDVEMAAIDCDKAVTVEFKHDDKLSEDSGALIQCAVLYTTISGQRRLRIHNLGLNCSSQLADLYKSCETDALINFFAKSAFKAVLHQPLKVIREILVNQTAHMLACYRKNCASPSAASQLILPDSMKVLPVYMNCLLKNCVLLSRPEISTDERAYQRQLVMTMGVADSQLFFYPQLLPIHTLDVKSTMLPAAVRCSESRLSEEGIFLLANGLHMFLWLGVSSPPELIQGIFNVPSFAHINTDMTLLPEVGNPYSQQLRMIMGIIQQKRPYSMKLTIVKQREQPEMVFRQFLVEDKGLYGGSSYVDFLCCVHKEICQLLN [SEC24D]”, the “solubility change mitosis (log2)” value in the data set on HeLa Kyoto [1] was -0.132. In addition, in the data set on HeLa Kyoto [2], the “solubility in G1/S (log2)” value turned out to be 0.11. Further, the thermal stability score in the data set on HeLa Kyoto [3] (setting [5]) came out at 0.419; with HeLa Kyoto [3] (cell cycle stage: mitosis) it was 0.688. The figures for the melting temperature with HeLa Kyoto [4] (cell cycle stage: G1/S) and in the data set with HeLa Kyoto [4] (cell cycle stage: mitosis) were 50.8 °C and 50.9 °C, respectively.
With “MSQSKGKKRNPGLKIPKEAFEQPQTSSTPPRDLDSKACISIGNQNFEVKADDLEPIMELGRGAYGVVEKMRHVPSGQIMAVKRIRATVNSQEQKRLLMDLDISMRTVDCPFTVTFYGALFREGDVWICMELMDTSLDKFYKQVIDKGQTIPEDILGKIAVSIVKALEHLHSKLSVIHRDVKPSNVLINALGQVKMCDFGISGYLVDSVAKTIDAGCKPYMAPERINPELNQKGYSVKSDIWSLGITMIELAILRFPYDSWGTPFQQLKQVVEEPSPQLPADKFSAEFVDFTSQCLKKNSKERPTYPELMQHPFFTLHESKGTDVASFVKLILGD [MAP2K6]”, the “solubility change mitosis (log2)” value in the data set on HeLa Kyoto [1] is -0.158. Besides, the “solubility in G1/S (log2)” value with HeLa Kyoto [2] is 0.225. Further, the thermal stability score in the data set on HeLa Kyoto [3] (setting [5]) came out at 1.49; in the data set with HeLa Kyoto [3] (cell cycle stage: mitosis), 0.537. The melting temperature in the data set with HeLa Kyoto [4] (cell cycle stage: G1/S) worked out at 51.4 °C; in the data set with HeLa Kyoto [4] (cell cycle stage: mitosis), 52.5 °C.
